Laboratory results reported in patent US20060172380.

Tested on: TAB1 (437-504)

With TAK1-HA the “in vitro kinase assay of immunoprecipitated TAK1 (activation of XMEK2 (SEK1), phosphorylation of KN-p38 (MPK2))” value was “TAB1 increases TAK1 kinase activity”.
